Test results as given in article PMC8618838.

Target: wt HBc capsid like particles (Hepatitis B virus core protein) (Human Hepatitis B virus) (UniProt P03147)
Assay: cryo-EM structure

For “wt HBc capsid like particles (Hepatitis B virus core protein) (from UniProt P03147) (natural protein)”, which stoichiometry N is on record?
The stoichiometry N was 240.
